According to IntAct's records for PubMed 18617892:

B1: Nuclear factor NF-kappa-B p100 subunit (Homo sapiens), Q00653 (parent)
chain: MESCYNPGLDGIIEYDDFKLNSSIVEPKEPAPETADGPYLVIVEQPKQRGFRFRYGCEGPSHGGLPGASSEKGRKTYPTVKICNYEGPAKIEVDLVTHSDPPRAHAHSLVGKQCSELGICAVSVGPKDMTAQFNNLGVLHVTKKNMMGTMIQKLQRQRLRSRPQGLTEAEQRELEQEAKELKKVMDLSIVRLRFSAFLRASDGSFSLPLKPVISQPIHDSKSPGASNLKISRMDKTAGSVRGGDEVYLLCDKVQKDDIEVRFYEDDENGWQAFGDFSPTDVHKQYAIVFRTPPYHKMKIERPVTVFLQLKRKRGGDVSDSKQFTYYPLVEDKEEVQRKRRKALPTFSQPFGGGSHMGGGSGGAAGGYGGAGGGGSLGFFPSSLAYSPYQSGAGPMGCYPGGGGGAQMAATVPSRDSGEEAAEPSAPSRTPQCEPQAPEMLQRAREYNARLFGLAQRSARALLDYGVTADARALLAGQRHLLTAQDENGDTPLHLAIIHGQTSVIEQIVYVIHHAQDLGVVNLTNHLHQTPLHLAVITGQTSVVSFLLRVGADPALLDRHGDSAMHLALRAGAGAPELLRALLQSGAPAVPQLLHMPDFEGLYPVHLAVRARSPECLDLLVDSGAEVEATERQGGRTALHLATEMEELGLVTHLVTKLRANVNARTFAGNTPLHLAAGLGYPTLTRLLLKAGADIHAENEEPLCPLPSPPTSDSDSDSEGPEKDTRSSFRGHTPLDLTCSTKVKTLLLNAAQNTMEPPLTPPSPAGPGLSLGDTALQNLEQLLDGPEAQGSWAELAERLGLRSLVDTYRQTTSPSGSLLRSYELAGGDLAGLLEALSDMGLEEGVRLLRGPETRDKLPSTAEVKEDSAYGSQSVEQEAEKLGPPPEPPGGLCHGHPQPQVH

Assays:
fbw1a_human BTRC, Q9Y297 = variants of: B1; conditions: with fbw1a_human BTRC
fbw1a_human BTRC, Q9Y297, sequence (Q9Y297 whole entry): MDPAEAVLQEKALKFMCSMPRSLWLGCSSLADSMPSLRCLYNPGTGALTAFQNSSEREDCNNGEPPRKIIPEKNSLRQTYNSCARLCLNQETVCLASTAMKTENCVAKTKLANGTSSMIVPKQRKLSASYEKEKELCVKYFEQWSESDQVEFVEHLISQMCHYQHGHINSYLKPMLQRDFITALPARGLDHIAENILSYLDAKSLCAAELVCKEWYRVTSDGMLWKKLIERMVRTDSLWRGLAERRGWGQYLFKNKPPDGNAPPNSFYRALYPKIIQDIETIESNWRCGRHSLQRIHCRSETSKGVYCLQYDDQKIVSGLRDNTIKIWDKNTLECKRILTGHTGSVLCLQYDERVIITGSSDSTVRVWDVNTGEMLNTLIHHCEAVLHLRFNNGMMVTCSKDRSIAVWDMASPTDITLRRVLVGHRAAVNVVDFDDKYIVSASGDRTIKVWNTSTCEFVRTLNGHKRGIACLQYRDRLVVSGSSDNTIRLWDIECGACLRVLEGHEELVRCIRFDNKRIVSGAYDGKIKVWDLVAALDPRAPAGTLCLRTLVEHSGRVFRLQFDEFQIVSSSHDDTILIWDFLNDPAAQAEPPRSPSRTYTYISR

ubc_human UBC, P0CG48 = variants of: B1; conditions: with ubc_human UBC
ubc_human UBC, P0CG48, sequence (P0CG48 whole entry, looked up): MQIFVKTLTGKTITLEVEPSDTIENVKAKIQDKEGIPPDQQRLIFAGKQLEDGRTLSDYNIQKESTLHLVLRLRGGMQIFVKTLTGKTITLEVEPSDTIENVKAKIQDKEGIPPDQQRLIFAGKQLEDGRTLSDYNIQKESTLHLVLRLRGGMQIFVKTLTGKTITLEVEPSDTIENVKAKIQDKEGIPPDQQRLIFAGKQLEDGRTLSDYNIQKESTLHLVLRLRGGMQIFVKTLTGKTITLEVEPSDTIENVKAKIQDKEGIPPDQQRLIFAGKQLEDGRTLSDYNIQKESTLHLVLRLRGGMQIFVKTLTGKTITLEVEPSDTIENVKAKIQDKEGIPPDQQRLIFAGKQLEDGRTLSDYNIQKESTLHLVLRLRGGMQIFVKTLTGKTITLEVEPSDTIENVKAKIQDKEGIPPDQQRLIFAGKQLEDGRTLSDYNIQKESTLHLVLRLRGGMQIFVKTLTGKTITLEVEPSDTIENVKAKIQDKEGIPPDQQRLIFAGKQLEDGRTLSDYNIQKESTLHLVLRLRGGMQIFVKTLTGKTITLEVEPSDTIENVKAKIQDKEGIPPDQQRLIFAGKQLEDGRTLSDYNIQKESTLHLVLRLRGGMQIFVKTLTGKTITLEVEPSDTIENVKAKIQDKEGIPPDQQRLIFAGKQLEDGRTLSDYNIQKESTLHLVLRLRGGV

effect of a mutation on the interaction (fbw1a_human BTRC, Q9Y297)	effect of a mutation on the interaction (ubc_human UBC, P0CG48)	Variant
decreasing interaction	decreasing interaction	K298R
decreasing interaction	decreasing interaction	K689R
decreasing interaction	decreasing interaction	K863R
decreasing interaction	decreasing interaction	K90R
